B1: GST-Ykl166C (enzyme, UniProt P05986 1-398, looked up)
chain: MYVDPMNNNEIRKLSITAKTETTPDNVGQDIPVNAHSVHEECSSNTPVEINGRNSGKLKEEASAGICLVKKPMLQYRDTSGKYSLSDFQILRTLGTGSFGRVHLIRSNHNGRFYALKTLKKHTIVKLKQVEHTNDERRMLSIVSHPFIIRMWGTFQDSQQVFMVMDYIEGGELFSLLRKSQRFPNPVAKFYAAEVCLALEYLHSKDIIYRDLKPENILLDKNGHIKITDFGFAKYVPDVTYTLCGTPDYIAPEVVSTKPYNKSVDWWSFGVLIYEMLAGYTPFYNSNTMKTYENILNAELKFPPFFHPDAQDLLKKLITRDLSERLGNLQNGSEDVKNHPWFNEVIWEKLLARYIETPYEPPIQQGQGDTSQFDRYPEEEFNYGIQGEDPYMDLMKEF
notes: also called Ykl166C-Tpk3; Tpk3; not shown: glutathione S-transferase (GST) fusion tag
B3: endogenous Tpk1 (enzyme, yeast, UniProt P06244 2-397, looked up)
chain: STEEQNGGGQKSLDDRQGEESQKGETSERETTATESGNESKSVEKEGGETQEKPKQPHVTYYNEEQYKQFIAQARVTSGKYSLQDFQILRTLGTGSFGRVHLIRSRHNGRYYAMKVLKKEIVVRLKQVEHTNDERLMLSIVTHPFIIRMWGTFQDAQQIFMIMDYIEGGELFSLLRKSQRFPNPVAKFYAAEVCLALEYLHSKDIIYRDLKPENILLDKNGHIKITDFGFAKYVPDVTYTLCGTPDYIAPEVVSTKPYNKSIDWWSFGILIYEMLAGYTPFYDSNTMKTYEKILNAELRFPPFFNEDVKDLLSRLITRDLSQRLGNLQNGTEDVKNHPWFKEVVWEKLLSRNIETPYEPPIQQGQGDTSQFDKYPEEDINYGVQGEDPYADLFRDF
notes: Untagged yeast Tpk1 found in a GST fusion preparation; also called Tpk1wt; a protein with the same molecular weight as Tpk1

One test addresses T1, GST-Yil033C (yeast, UniProt P07278 1-416).
T1 construct: also called Yil033C-Bcy1; Yil033C-Bcyl; not shown: glutathione S-transferase (GST) fusion tag
T1 sequence (looked up): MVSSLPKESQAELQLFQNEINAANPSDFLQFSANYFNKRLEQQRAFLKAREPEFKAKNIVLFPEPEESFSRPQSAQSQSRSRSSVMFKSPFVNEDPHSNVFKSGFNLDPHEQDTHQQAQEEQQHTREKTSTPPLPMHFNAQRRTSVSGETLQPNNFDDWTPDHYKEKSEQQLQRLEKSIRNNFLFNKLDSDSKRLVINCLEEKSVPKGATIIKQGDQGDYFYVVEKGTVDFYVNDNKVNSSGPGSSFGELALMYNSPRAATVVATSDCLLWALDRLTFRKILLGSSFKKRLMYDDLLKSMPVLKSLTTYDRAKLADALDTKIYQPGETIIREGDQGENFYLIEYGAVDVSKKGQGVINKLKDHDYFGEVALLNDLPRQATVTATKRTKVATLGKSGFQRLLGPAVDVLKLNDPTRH
The test can be described thus: microarray-based protein-protein interaction.

In the test “endogenous Tpk1” the target is B3. The experiment in a line: co-purification with the GST fusion, Western blot with anti-Tpk1. An excerpt: (§1) Tpk1 is a protein kinase involved in pseudohyphal growth and ras signal transduction (Robertson et al., 1998, Pro Natl Acad Sci USA 95, 13783-7; Tokiwa et al., 1994, Nature 371, 342-5). […] Three of these proteins, Ykl166C-Tpk3 (a protein kinase), Ypl203W-Tpk2 (a protein kinase) and Yil033C-Bcyl (a cAMP-dependent protein kinase inhibitor) have been shown by mass spectroscopy to be co-immunoprecipitated with Tpk1 (Ho et al., 2002, Nature 415, 180-3).
(§2) SDS-PAGE and Western analyses of Protein Samples. Purified proteins were mixed with sample buffer, heated and run in 5%/10% SDS-PAGE gels, transferred to nitrocellulose and blocked overnight with 1% BSA in TBST. Subsequently, blots were probed with primary antibodies for 2 hours, washed three times with TBST, probed with secondary antibodies conjugated to HRP for 1 hour and washed three times with TBST. Femto-reagent (Pierce Co., Milwaukee) was added and images acquired with an Alpha Innotech Imaging station.
Background: A western blot detects proteins with antibodies after separation by electrophoresis.

The target of test [1] is B1. The test is described as above.
Source text: as §1, §2

The target of test [2] is B1. The test can be described thus: microarray-based protein interaction experiment.

B1: the binding result with GST-Yil033C is listed as “binds”.

B2: GST-Ypl203W (enzyme, UniProt P06245 1-380, looked up)
chain: MEFVAERAQPVGQTIQQQNVNTYGQGVLQPHHDLQQRQQQQQQRQHQQLLTSQLPQKSLVSKGKYTLHDFQIMRTLGTGSFGRVHLVRSVHNGRYYAIKVLKKQQVVKMKQVEHTNDERRMLKLVEHPFLIRMWGTFQDARNIFMVMDYIEGGELFSLLRKSQRFPNPVAKFYAAEVILALEYLHAHNIIYRDLKPENILLDRNGHIKITDFGFAKEVQTVTWTLCGTPDYIAPEVITTKPYNKSVDWWSLGVLIYEMLAGYTPFYDTTPMKTYEKILQGKVVYPPYFHPDVVDLLSKLITADLTRRIGNLQSGSRDIKAHPWFSEVVWERLLAKDIETPYEPPITSGIGDTSLFDQYPEEQLDYGIQGDDPYAEYFQDF
notes: also called Ypl203W-Tpk2; Yp1203W; not shown: glutathione S-transferase (GST) fusion tag
As for B2, the values for the binding result with GST-Yil033C and with endogenous Tpk1 were “binds” and “no binding”, respectively.
As to B3, the binding result with GST-Ykl166C [1] was “no binding”.

B4: GST-Yjl164C-Tpk1 (enzyme, UniProt P06244 1-397, looked up)
chain: MSTEEQNGGGQKSLDDRQGEESQKGETSERETTATESGNESKSVEKEGGETQEKPKQPHVTYYNEEQYKQFIAQARVTSGKYSLQDFQILRTLGTGSFGRVHLIRSRHNGRYYAMKVLKKEIVVRLKQVEHTNDERLMLSIVTHPFIIRMWGTFQDAQQIFMIMDYIEGGELFSLLRKSQRFPNPVAKFYAAEVCLALEYLHSKDIIYRDLKPENILLDKNGHIKITDFGFAKYVPDVTYTLCGTPDYIAPEVVSTKPYNKSIDWWSFGILIYEMLAGYTPFYDSNTMKTYEKILNAELRFPPFFNEDVKDLLSRLITRDLSQRLGNLQNGTEDVKNHPWFKEVVWEKLLSRNIETPYEPPIQQGQGDTSQFDKYPEEDINYGVQGEDPYADLFRDF
notes: not shown: glutathione S-transferase (GST) fusion tag
With B4, the binding result with GST-Ykl166C [2] is “no binding”; with GST-Yil033C, “binds”.

(Values after patent publication US20050129678A1 (published 2005).)
